This note sets out measurements from PMC8360118 (Genes to Cells, 2021).

* marks the point of attachment. αMan = OC[C@H]1O[C@H](*)[C@@H](O)[C@@H](O)[C@@H]1O

For this experiment, the target named is T1, soluble form of bovine POMGNT2 (sPOMGNT2, residues 45–580) (bovine, UniProt Q5NDF2 45-580).
T1 sequence (looked up): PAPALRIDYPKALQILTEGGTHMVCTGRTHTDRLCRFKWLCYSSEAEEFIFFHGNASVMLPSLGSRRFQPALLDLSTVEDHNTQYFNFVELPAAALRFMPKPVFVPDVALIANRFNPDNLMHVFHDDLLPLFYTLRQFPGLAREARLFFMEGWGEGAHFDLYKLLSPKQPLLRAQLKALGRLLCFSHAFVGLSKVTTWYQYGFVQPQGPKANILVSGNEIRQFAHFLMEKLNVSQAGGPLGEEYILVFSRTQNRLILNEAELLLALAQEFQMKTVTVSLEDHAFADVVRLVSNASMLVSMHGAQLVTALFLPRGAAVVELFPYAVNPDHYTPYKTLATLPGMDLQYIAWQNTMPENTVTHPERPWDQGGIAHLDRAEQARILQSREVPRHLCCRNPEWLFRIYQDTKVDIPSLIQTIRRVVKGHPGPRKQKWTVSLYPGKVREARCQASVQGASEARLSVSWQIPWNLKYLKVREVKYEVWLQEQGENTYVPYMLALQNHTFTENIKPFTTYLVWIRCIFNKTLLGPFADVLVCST
Nature of the experiment: crystal structure.

B1: 379Man short peptide (peptide)
peptide: Ac-QT(αMan)PTLGPIQPTR-NH2
SMILES: CC[C@H](C)[C@H](NC(=O)[C@@H]1CCCN1C(=O)CNC(=O)[C@H](CC(C)C)NC(=O)[C@@H](NC(=O)[C@@H]1CCCN1C(=O)[C@@H](NC(=O)[C@H](CCC(N)=O)NC(C)=O)[C@@H](C)O[C@H]1O[C@H](CO)[C@@H](O)[C@H](O)[C@@H]1O)[C@@H](C)O)C(=O)N[C@@H](CCC(N)=O)C(=O)N1CCC[C@H]1C(=O)N[C@H](C(=O)N[C@@H](CCCNC(=N)N)C(N)=O)[C@@H](C)O
Consider B1, for which the binding result is reported as “binds”.

B2: 379Man long peptide (peptide)
peptide: Ac-TIRTRGAIIQT(αMan)PTLGPIQPTR-NH2
SMILES: CC[C@H](C)[C@H](NC(=O)[C@H](C)NC(=O)CNC(=O)[C@H](CCCNC(=N)N)NC(=O)[C@@H](NC(=O)[C@H](CCCNC(=N)N)NC(=O)[C@@H](NC(=O)[C@@H](NC(C)=O)[C@@H](C)O)[C@@H](C)CC)[C@@H](C)O)C(=O)N[C@H](C(=O)N[C@@H](CCC(N)=O)C(=O)N[C@H](C(=O)N1CCC[C@H]1C(=O)N[C@H](C(=O)N[C@@H](CC(C)C)C(=O)NCC(=O)N1CCC[C@H]1C(=O)N[C@H](C(=O)N[C@@H](CCC(N)=O)C(=O)N1CCC[C@H]1C(=O)N[C@H](C(=O)N[C@@H](CCCNC(=N)N)C(N)=O)[C@@H](C)O)[C@@H](C)CC)[C@@H](C)O)[C@@H](C)O[C@H]1O[C@H](CO)[C@@H](O)[C@H](O)[C@@H]1O)[C@@H](C)CC
Regarding B2, the binding result is given as “binds”.
